From paper PMC8673838, “MCPH1 inhibits Condensin II during interphase by regulating its SMC2-Kleisin interface” (eLife, 2021)

Columns and labels:
[1] = molecular target: T1, human condensin II pentameric complex (SMC2, SMC4, NCAPH2, NCAPD3, NCAPG2) (human, UniProt O95347 1-1197; Q9NTJ3 1-1288; Q6IBW4 1-605; P42695 1-1498; Q86XI2 1-1143); experiment: native gel or EMSA; condensin II at increasing concentrations with MCPH1_(1-435)-MBP, MBP or 1 µM 5-FAM peptide and 50 nM Cy5-labelled 50 bp dsDNA; 15 min on ice; 2 % agarose, 0.5 x TBE; conditions: both partners purified
T1 construct: SMC2, human, subunit of condensin II; SMC4, human, subunit of condensin II; NCAPH2, human, kleisin subunit of condensin II; NCAPD3 (CAP-D3), human, HAWK subunit of condensin II; NCAPG2 (CAPG2), human, HAWK subunit of condensin II; It says only 'strep-tagged condensin II'; also called pentameric condensin II; strep-tagged condensin II; source: insect cells, purified as previously described (Kong …)

[2] = molecular target: T2, NCAPG2 subunit of human condensin II (human, UniProt Q86XI2 1-1143); experiment: pull-down; strep-tagged condensin complexes (0.1 µM) with at least a 10-fold molecular excess of MBP MCPH1 constructs or MBP, Strep-tactin sepharose, 20 mM Tris pH 7.5, 150 mM NaCl, 10 % glycerol, 1 mM DTT; five washes; Coomassie or silver stain; conditions: both partners purified
T2 construct: NCAPG2, human, HAWK subunit of condensin II; Never tested alone: the contact is drawn from complexes with and without this subunit; source: insect cells, as a subunit of purified condensin II (Kong et al., 2020)
T2 sequence (looked up): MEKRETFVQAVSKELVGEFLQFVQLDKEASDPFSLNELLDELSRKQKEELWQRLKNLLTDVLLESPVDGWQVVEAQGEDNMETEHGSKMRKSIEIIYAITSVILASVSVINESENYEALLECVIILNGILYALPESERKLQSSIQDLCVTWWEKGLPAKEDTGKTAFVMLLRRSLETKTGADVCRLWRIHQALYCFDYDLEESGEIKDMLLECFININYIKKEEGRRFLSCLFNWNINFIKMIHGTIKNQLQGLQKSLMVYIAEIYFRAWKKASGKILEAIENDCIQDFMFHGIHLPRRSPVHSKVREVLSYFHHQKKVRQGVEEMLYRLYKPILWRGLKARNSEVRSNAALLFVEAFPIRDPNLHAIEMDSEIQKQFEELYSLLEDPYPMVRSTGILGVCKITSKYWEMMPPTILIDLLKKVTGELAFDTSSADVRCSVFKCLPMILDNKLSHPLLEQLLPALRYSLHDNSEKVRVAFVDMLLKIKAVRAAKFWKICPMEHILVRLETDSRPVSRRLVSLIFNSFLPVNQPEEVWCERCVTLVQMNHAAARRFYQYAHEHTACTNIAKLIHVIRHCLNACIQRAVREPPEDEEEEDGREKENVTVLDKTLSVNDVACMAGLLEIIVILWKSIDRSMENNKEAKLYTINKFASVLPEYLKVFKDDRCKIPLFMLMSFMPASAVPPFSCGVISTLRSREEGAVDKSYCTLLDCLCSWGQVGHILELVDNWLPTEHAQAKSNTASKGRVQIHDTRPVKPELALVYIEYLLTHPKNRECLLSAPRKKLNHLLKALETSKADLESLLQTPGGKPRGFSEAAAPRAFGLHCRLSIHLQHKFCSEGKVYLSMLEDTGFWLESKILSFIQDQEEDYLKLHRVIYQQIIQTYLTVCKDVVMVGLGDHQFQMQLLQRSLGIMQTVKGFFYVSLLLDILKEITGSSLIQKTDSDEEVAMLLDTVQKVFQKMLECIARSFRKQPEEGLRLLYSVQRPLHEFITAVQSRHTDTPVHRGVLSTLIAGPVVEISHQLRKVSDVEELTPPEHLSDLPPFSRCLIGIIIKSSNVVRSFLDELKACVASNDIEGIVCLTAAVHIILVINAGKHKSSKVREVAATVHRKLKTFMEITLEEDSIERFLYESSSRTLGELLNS

[3] = molecular target: T3, tetrameric condensin II lacking NCAPD3 (human, UniProt O95347 1-1197; Q9NTJ3 1-1288; Q6IBW4 1-605; Q86XI2 1-1143); experiment: as above; conditions: both partners purified
T3 construct: SMC2, human; SMC4, human; NCAPH2, human; NCAPG2, human; also called tetrameric condensin II lacking the CAP-D3 subunit; source: insect cells, purified as previously described (Kong et al., 2020); copies: + + +

MCPH1 1-435-MBP = molecular target: T4, MCPH1 1-435-MBP (Homo sapiens, UniProt Q8NEM0 1-435); experiment: EMSA; 50 nM DNA; EMSA with 50 nM 5'-Cy5 50 bp dsDNA; EMSA buffer, salt, pH and temperature not given in the material; conditions: protein: recombinant; tags: N-term 6xHis, C-term MBP; label: 5' Cy5; blunt
T4 sequence: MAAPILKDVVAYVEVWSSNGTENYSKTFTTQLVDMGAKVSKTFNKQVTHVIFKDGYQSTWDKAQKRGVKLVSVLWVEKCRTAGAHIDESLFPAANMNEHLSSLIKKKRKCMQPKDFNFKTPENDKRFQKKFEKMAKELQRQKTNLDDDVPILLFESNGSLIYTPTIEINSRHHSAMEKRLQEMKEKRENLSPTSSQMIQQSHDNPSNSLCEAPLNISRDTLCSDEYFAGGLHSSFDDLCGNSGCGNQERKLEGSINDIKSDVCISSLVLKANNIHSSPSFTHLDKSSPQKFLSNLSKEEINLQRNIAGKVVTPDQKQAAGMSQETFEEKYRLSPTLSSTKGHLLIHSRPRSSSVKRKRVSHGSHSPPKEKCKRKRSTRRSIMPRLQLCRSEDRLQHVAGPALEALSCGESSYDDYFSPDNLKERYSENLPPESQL

condensin II pentamer = condensin II pentamer (Homo sapiens, UniProt O95347;Q9NTJ3;Q6IBW4;P42695;Q86XI2 1-1197;1-1288;1-605;1-1498;1-1143); experiment: EMSA; with MBP control or without peptide; EMSA with 50 nM 5'-Cy5 50 bp dsDNA; EMSA buffer, salt, pH and temperature not given in the material; conditions: protein: recombinant; tags: Strep tag; copies: 1;1;1;1;1; label: 5' Cy5; blunt
[4] = molecular target: condensin II pentamer;MCPH1 1-435-MBP (Homo sapiens;Homo sapiens, UniProt O95347;Q9NTJ3;Q6IBW4;P42695;Q86XI2;Q8NEM0 …, |); experiment: EMSA; condensin II bands shifted upward with MCPH1 1-435-MBP; EMSA with 50 nM 5'-Cy5 50 bp dsDNA; EMSA buffer, salt, pH and temperature not given in the material; conditions: protein: recombinant;recombinant; tags: Strep tag;N-term 6xHis, C-term MBP; copies: 1;1;1;1;1;1; label: 5' Cy5; blunt

Measured: binding result

T3 sequence (O95347 whole entry, chain 1 of 3): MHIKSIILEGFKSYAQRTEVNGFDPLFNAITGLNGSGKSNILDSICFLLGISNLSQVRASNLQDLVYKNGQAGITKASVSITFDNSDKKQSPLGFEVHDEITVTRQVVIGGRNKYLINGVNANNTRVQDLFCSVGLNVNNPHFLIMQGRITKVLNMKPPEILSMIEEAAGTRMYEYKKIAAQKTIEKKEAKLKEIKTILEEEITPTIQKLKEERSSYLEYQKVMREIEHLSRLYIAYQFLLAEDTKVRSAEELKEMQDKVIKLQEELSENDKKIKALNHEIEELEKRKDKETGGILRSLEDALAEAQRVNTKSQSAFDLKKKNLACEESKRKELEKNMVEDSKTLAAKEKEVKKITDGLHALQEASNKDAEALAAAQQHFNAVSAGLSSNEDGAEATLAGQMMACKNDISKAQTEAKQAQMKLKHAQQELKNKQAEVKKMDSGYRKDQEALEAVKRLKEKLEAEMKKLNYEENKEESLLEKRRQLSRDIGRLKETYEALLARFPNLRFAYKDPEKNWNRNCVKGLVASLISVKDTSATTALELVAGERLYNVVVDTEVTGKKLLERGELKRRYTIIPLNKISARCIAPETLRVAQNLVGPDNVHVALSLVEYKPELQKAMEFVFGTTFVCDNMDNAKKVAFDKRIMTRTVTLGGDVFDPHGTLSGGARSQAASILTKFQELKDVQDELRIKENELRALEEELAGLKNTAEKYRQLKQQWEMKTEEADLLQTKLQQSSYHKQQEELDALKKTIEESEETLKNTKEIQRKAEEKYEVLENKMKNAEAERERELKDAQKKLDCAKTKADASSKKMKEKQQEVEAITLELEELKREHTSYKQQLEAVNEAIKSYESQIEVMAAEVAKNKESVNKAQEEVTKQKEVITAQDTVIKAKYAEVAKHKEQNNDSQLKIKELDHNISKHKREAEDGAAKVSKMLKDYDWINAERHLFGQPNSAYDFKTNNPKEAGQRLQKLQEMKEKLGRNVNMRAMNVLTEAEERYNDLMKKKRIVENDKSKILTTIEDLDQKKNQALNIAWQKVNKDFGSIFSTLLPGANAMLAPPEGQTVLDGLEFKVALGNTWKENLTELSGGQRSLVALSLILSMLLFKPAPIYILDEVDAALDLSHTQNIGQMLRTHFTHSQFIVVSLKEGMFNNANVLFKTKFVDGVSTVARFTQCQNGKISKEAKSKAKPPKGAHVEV
T3 sequence (Q9NTJ3 whole entry, chain 2 of 3): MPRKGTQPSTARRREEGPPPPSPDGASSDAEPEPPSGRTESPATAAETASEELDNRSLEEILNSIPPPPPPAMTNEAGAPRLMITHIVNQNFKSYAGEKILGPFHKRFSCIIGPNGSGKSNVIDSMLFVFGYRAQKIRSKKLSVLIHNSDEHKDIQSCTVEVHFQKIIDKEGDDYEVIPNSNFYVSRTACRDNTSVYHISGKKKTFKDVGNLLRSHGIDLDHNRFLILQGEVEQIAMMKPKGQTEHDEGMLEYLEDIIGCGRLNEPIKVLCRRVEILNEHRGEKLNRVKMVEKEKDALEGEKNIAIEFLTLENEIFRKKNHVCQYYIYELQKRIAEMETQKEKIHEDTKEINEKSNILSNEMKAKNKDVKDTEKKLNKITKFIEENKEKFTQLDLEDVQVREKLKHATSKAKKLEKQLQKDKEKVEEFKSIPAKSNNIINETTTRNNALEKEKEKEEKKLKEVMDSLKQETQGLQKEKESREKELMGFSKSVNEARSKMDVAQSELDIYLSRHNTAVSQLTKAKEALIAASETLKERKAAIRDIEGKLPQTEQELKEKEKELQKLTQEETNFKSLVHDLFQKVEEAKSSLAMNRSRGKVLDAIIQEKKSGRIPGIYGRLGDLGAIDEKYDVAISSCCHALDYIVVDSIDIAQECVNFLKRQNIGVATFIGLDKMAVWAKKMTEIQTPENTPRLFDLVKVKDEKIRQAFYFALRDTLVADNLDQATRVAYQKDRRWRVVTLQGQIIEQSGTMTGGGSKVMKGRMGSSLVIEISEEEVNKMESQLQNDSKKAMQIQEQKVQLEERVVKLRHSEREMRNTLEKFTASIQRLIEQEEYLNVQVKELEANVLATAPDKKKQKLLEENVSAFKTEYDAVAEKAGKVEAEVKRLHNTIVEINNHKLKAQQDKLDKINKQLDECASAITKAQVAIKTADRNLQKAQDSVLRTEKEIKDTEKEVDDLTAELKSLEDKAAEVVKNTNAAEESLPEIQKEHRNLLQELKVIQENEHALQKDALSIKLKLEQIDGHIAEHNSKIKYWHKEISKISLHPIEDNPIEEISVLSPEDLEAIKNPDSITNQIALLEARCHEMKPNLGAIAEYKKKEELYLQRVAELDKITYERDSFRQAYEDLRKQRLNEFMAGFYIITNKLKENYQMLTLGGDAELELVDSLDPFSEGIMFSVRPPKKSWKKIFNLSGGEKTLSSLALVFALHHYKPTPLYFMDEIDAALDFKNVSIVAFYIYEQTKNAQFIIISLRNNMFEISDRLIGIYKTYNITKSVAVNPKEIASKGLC
T3 sequence (Q6IBW4 whole entry, chain 3 of 3): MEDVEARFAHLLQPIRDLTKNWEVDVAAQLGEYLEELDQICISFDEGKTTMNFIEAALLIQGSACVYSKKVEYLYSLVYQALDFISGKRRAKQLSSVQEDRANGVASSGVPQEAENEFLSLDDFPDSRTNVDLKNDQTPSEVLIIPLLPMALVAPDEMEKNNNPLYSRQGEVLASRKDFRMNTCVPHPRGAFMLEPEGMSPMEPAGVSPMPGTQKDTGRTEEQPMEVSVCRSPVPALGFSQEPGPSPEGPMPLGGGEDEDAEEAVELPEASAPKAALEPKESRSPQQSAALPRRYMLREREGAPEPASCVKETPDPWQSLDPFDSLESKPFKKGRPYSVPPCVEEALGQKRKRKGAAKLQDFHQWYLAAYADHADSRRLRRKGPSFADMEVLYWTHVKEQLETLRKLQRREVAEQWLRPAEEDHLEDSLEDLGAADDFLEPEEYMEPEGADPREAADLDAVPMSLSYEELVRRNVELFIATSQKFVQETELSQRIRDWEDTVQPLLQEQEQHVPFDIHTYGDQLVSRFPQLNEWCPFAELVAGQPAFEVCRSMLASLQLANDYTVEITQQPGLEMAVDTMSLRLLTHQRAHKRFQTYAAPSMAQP
T1 sequence (O95347 whole entry, chain 1 of 4): as the sequence (O95347 whole entry, chain 1 of 3) above
T1 sequence (Q9NTJ3 whole entry, chain 2 of 4): as the sequence (Q9NTJ3 whole entry, chain 2 of 3) above
T1 sequence (Q6IBW4 whole entry, chain 3 of 4): as the sequence (Q6IBW4 whole entry, chain 3 of 3) above
T1 sequence (P42695 whole entry, chain 4 of 4): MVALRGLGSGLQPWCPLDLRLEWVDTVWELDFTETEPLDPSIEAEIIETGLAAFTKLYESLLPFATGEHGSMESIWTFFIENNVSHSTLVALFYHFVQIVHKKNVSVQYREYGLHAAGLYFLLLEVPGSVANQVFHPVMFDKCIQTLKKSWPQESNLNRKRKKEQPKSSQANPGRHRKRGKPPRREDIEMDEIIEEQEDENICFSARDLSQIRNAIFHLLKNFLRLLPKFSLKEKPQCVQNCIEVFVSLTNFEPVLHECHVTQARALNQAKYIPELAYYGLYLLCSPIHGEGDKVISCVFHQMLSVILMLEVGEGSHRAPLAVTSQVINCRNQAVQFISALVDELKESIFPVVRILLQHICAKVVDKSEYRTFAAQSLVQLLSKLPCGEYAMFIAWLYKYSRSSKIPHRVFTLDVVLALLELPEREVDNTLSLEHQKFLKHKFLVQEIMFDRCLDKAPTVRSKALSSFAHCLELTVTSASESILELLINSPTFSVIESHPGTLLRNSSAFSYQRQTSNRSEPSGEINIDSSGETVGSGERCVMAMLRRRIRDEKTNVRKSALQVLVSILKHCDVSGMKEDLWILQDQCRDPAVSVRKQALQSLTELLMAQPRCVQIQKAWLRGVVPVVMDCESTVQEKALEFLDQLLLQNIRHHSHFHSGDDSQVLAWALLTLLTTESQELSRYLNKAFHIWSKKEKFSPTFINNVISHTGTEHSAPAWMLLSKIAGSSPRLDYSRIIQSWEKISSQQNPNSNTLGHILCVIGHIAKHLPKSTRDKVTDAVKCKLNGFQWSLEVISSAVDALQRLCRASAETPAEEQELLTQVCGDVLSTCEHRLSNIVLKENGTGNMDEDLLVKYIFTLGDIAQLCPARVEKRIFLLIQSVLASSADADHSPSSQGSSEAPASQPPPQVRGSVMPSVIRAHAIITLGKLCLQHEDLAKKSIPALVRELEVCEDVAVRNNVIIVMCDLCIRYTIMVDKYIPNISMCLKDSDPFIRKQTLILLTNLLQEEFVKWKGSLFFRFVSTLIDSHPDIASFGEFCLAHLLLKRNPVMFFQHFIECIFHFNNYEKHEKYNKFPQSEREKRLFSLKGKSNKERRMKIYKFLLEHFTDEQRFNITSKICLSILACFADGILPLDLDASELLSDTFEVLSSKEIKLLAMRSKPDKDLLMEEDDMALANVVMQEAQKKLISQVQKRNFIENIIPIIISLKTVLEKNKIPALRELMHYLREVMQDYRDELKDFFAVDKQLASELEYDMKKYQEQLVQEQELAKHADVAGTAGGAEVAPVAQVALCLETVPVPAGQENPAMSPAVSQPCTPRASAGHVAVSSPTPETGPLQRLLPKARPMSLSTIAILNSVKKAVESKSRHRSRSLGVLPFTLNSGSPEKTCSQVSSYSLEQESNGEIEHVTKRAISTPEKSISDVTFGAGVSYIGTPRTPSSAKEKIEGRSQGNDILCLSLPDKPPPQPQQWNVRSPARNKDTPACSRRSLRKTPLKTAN

B1: MCPH1_(1-435)-MBP (domain or fragment, human, UniProt Q8NEM0 1-435, looked up)
chain: MAAPILKDVVAYVEVWSSNGTENYSKTFTTQLVDMGAKVSKTFNKQVTHVIFKDGYQSTWDKAQKRGVKLVSVLWVEKCRTAGAHIDESLFPAANMNEHLSSLIKKKRKCMQPKDFNFKTPENDKRFQKKFEKMAKELQRQKTNLDDDVPILLFESNGSLIYTPTIEINSRHHSAMEKRLQEMKEKRENLSPTSSQMIQQSHDNPSNSLCEAPLNISRDTLCSDEYFAGGLHSSFDDLCGNSGCGNQERKLEGSINDIKSDVCISSLVLKANNIHSSPSFTHLDKSSPQKFLSNLSKEEINLQRNIAGKVVTPDQKQAAGMSQETFEEKYRLSPTLSSTKGHLLIHSRPRSSSVKRKRVSHGSHSPPKEKCKRKRSTRRSIMPRLQLCRSEDRLQHVAGPALEALSCGESSYDDYFSPDNLKERYSENLPPESQL
notes: the text says the tag was moved to the C-terminus for this experiment; source: E. coli BL21 (DE3) pLysS, purified (Ni-NTA, ion exchange or heparin); not shown: MBP, C-terminal, kept
binds: [1] | [2] | [3]

B2: 50 bp dsDNA (dsDNA)
DNA 1: CTGTCACACCCTGTCACACCCTGTCACACCCTGTCACACCCTGTCACACC
DNA 2: GGTGTGACAGGGTGTGACAGGGTGTGACAGGGTGTGACAGGGTGTGACAG
binds: MCPH1 1-435-MBP | condensin II pentamer | [4]
